Data on 2 molecules can be found in patent publication US20220324970A1 (Janssen / Centocor, published 2022).

Like-named read-outs stand apart in the source and are kept apart here.

Assay [1] has as its target T1, human pIgR extracellular domain (ECD) (human, UniProt P01833 19-638).
T1 construct: also called hpIgR ECD
Description: ECL (MSD), anti-VHH detection against anti-Fc detection.

Assay [2] has as its target T2, human pIgR, full-length, on cells (human, UniProt P01833 19-764). Description: cell-based or functional assay.
The target in assay [3] is T2, human pIgR, full-length, on cells. Description: flow cytometry on MDCK-hpIgR cells. (Flow cytometry measures light scatter and fluorescence of single cells or particles in a stream.)
Assay [4] has as its target T1, human pIgR extracellular domain (ECD). The assay can be described thus: ECL (MSD), hpIgR-ECD coated, anti-Fc detection.
Description: To check whether VHH recognizes a buried epitope on pIgR, EC₅₀ values were measured for VHH-mono-Fc molecules binding to hpIgR-ECD protein by electrochemiluminescence using two different detection antibodies, an anti-Fc antibody and an anti-VHH antibody. pIgR ECD (10 μg/ml in PBS) was coated on high-bind MSD plates for 2 hours at RT with 1000 rpm, incubated with blocking buffer for 1 hour at RT, incubated with VHH-mono-Fc molecules (increasing concentrations in PBS) for 2 hours at RT with 1000 rpm, washed 3× with PBT, incubated with ruthenylated secondary antibody (2 μg/ml in PBS) for 1 hour at RT with 1000 rpm, washed 3× with PBT and read plates in 40 ul reading buffer using the MSD imager. EC50 was calculated by fitting log VHH concentration versus log ECLU in Prism (Graphpad). The increase in EC₅₀ (>50-fold) due to anti-VHH detection was used as a measure to determine whether VHH recognized buried epitope on pIgR.
Assay [5] addresses T2, human pIgR, full-length, on cells. Description: cell-based or functional assay. The source holds these as a separate data set.
The target in assay [6] is T1, human pIgR extracellular domain (ECD). The assay can be described thus: BLI; summary table, repeats Table 1. A general note: Biolayer interferometry detects binding as a change in optical thickness at a sensor tip.
In assay [7] the target is T3, human pIgR extracellular domain 2 (D2) (human, UniProt P01833 128-242).
T3 construct: HIS-tagged construct made in HEK293 cells; also called hpIgR domain 2
Description: ECL (MSD) heat map, HIS-tagged construct captured via anti-HIS, anti-human-Fc detection.

Assay [8] has as its target T4, human pIgR extracellular domain 5 (D5) (human, UniProt P01833 460-565).
T4 construct: HIS-tagged construct made in HEK293 cells; also called hpIgR domain 5
Described as above.

Assay [9] concerns the target T5, human pIgR extracellular domain 1 (D1) (human, UniProt P01833 19-127).
T5 construct: HIS-tagged construct made in HEK293 cells; also called hpIgR domain-1
Described as above.

Another assay addresses T6, hpIgR_D3.
T6 construct: HIS-tagged construct from HEK293 cells; also called human pIgR extracellular domain 3 (D3); hD3
T6 HIS-tagged domain construct: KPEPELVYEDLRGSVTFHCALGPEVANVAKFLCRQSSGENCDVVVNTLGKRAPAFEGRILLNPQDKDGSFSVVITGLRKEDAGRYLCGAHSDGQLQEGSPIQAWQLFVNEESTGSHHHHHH
Described as above.

Assay [10] has as its target T1, human pIgR extracellular domain (ECD). The assay can be described thus: BLI (Octet), VHH-mono-Fc and hpIgR ectodomain.
Assay [11] concerns the target T7, human pIgR extracellular domain 4-domain 5 (D4-D5) (human, UniProt P01833 350-565).
T7 construct: HIS-tagged construct made in HEK293 cells; also called hpIgR domains 4-5
T7 chain: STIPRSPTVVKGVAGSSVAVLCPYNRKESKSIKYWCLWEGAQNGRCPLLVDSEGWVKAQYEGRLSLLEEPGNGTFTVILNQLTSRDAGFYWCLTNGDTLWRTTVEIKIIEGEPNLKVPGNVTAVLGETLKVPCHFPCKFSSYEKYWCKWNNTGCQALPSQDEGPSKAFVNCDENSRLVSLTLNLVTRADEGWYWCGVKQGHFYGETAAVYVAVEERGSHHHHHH
The assay can be described thus: ECL (MSD) heat map in ECLU: HIS-tagged construct captured via anti-HIS, VHH-mono-Fc 100 ug/ml, anti-human-Fc detection.
Description: The Electrochemiluminescence assay was performed as follows. A meso-scale discovery (MSD) platform was used for conducting epitope mapping and epitope burial studies. To test the binding of VHH-mono-Fc molecules to purified pIgR protein constructs, Streptavidin MSD plates were coated with a biotinylated anti-HIS antibody (2 μg/ml in PBS) for 1 hour at RT with 1000 rpm, washed 3× with PBT (PBS+0.1% Tween-20), incubated with blocking buffer for 1 hour at RT, incubated with His-tagged pIgR proteins (10 μg/ml in PBS) for 2 hours at RT with 1000 rpm, washed 3× with PBT, incubated with VHH-mono-Fc molecules (100 μg/ml in PBS) for 2 hours at RT with 1000 rpm, washed 3× with PBT, incubated with ruthenylated-anti-human-Fc antibody (2 μg/ml in PBS) for 1 hour at RT with 1000 rpm, washed 3× with PBT and read plates in 40 ul reading buffer using the MSD imager. ECLU values were plotted as a heatmap.

Assay [12] addresses T2, human pIgR, full-length, on cells. The assay can be described thus: flow cytometry on MDCK-hpIgR cells; summary table, repeats Table 1.
Description: Flow Cytometry was performed as follows. To test whether VHH-mono-Fc molecules recognize cell-surface hpIgR, Madin-Darby canine kidney (MDCK) cells engineered to express full-length hpIgR were used. Cells were cultured in Dulbecco's modified Eagle's medium containing 10% fetal calf serum at 37° C. with 5% CO₂. Cells were split into equal fractions (≈70,000 cells) and incubated with increasing concentrations of VHH-mono-Fc molecules for 30 min at 4 C. […] Cells were washed twice with cold staining buffer, resuspended in running buffer and analyzed with an iQue Screener (IntelliCyt Corporation). Binding was assessed by RL1 (A647) Geomeans from the live cell population and EC50 was calculated by fitting log VHH concentration versus MFI in Prism (Graphpad).
Assay [13] concerns the target T1, human pIgR extracellular domain (ECD). The assay can be described thus: ECL (MSD), hpIgR-ECD coated, anti-VHH detection.
For assay [14], the target named is T2, human pIgR, full-length, on cells. The assay can be described thus: flow cytometry on MDCK-hpIgR cells; summary table, repeats Table 1. The source holds these as a separate data set.
The target of assay [15] is T1, human pIgR extracellular domain (ECD). The assay can be described thus: BLI; summary table, repeats Table 1. This is another data set of the same source.
The next assay concerns the target T8, hpIgR_D2-D3.
T8 construct: HIS-tagged construct from HEK293 cells; also called human pIgR extracellular domain 2-domain 3 (D2-D3); hD2-D3
T8 HIS-tagged domain construct: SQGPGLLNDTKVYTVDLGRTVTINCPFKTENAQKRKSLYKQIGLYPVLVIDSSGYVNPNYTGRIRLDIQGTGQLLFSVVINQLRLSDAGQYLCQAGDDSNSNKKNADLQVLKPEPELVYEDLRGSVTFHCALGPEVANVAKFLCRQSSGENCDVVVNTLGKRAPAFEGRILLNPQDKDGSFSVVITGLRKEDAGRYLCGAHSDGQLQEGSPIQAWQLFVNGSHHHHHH
Description: ECL (MSD) heat map, HIS-tagged construct captured via anti-HIS, anti-human-Fc detection.

Assay [16] deals with T7, human pIgR extracellular domain …. Description: BLI (Octet RED384), 1:1 fit, 25 C, PBS; column kdis.
Assay [17] addresses T1, human pIgR extracellular domain (ECD). The assay is described as above.
The target in assay [18] is T7, human pIgR extracellular domain …. Description: BLI (Octet RED384), 1:1 fit, 25 C, PBS.
The target in assay [19] is T1, human pIgR extracellular domain (ECD). Description: BLI (Octet RED384), 1:1 fit, 25 C, PBS.
Assay [20] addresses T4, human pIgR extracellular domain 5 (D5). The assay can be described thus: ECL (MSD) heat map, HIS-tagged construct captured via anti-HIS, anti-human-Fc detection. This is another data set of the same source.
The target in assay [21] is T9, human pIgR extracellular domain 1-domain 2 (D1-D2) (human, UniProt P01833 19-240).
T9 construct: HIS-tagged construct made in HEK293 cells
T9 sequence (P01833 other isoform, or with tags, fused parts or gaps limits assumed): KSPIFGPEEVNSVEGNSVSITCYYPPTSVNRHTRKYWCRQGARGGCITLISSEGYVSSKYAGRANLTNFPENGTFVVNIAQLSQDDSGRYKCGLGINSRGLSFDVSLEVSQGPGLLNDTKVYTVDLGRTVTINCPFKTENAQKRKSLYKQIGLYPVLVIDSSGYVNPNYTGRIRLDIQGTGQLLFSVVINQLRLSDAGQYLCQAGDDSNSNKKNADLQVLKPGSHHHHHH
The assay is described as above.

Assay [22] has as its target T2, human pIgR, full-length, on cells. Description: cell-based or functional assay. This is another data set of the same source.

T2 sequence (P01833 19-764): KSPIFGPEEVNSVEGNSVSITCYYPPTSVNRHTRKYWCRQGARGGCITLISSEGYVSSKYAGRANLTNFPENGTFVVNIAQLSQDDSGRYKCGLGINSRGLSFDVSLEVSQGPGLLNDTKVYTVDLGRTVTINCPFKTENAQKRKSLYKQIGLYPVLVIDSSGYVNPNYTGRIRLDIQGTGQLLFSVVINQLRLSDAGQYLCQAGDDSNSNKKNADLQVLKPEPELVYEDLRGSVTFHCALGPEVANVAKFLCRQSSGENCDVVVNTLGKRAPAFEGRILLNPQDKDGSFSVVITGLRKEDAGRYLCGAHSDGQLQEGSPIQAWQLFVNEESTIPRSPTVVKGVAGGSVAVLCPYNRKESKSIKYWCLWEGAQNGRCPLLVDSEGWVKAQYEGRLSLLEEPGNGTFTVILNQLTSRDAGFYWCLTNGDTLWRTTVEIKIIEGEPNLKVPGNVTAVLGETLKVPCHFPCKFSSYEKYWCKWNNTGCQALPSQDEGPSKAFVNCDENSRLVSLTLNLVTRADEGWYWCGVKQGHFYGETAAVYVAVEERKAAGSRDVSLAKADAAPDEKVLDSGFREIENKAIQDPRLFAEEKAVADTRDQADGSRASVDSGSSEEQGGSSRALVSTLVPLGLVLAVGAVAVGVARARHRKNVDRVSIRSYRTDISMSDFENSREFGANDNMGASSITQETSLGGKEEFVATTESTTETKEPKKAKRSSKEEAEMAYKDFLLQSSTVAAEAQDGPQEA
T1 sequence (P01833 other isoform, or with tags, fused parts or gaps): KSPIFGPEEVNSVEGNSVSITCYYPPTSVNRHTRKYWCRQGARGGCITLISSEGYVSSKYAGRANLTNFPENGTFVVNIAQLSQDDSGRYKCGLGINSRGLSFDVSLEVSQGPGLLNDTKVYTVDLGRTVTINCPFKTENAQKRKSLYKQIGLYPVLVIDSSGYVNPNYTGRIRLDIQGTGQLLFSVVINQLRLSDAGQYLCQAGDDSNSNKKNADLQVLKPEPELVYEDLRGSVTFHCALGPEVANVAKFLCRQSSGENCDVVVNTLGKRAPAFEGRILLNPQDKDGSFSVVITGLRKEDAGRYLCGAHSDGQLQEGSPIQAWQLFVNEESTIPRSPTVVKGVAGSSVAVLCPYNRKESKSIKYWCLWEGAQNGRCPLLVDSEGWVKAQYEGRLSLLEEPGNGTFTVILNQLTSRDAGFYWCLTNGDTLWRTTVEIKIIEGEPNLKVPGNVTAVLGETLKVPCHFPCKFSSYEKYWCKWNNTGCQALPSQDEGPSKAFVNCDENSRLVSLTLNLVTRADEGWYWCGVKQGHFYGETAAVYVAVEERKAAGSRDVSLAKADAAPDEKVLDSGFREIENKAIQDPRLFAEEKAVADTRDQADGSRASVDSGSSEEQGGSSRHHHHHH
T5 sequence (P01833 other isoform, or with tags, fused parts or gaps limits assumed): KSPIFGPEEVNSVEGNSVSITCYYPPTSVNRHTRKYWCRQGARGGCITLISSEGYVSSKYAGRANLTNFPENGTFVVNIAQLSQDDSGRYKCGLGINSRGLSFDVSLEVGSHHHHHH

B1: VHH7-linker-mono-Fc protein (Fc fusion)
chain: EVQVVESGGGLVQAGGSLRLACVASRSIGSINVMGWYRQAPGKQRDLVARITGGGSTHYAESVKGRFTISRDNAKNTVYLQMNSLEPEDTAVYYCASMVNPIITAWGTIGVREIPDYDYWGQGTQVTVSSEPKTPKPQPQPQLQPQPNPTTESKSPKSPAPELLGGPSVFLFPPKPKDTLMISRTPEVTCVVVDVSHEDPEVKFNWYVDGVEVHNAKTKPREEQYNSTYRVVSVLTVLHQDWLNGKEYKCKVSNKALPAPIEKTISKAKGQPREPQVYTKPPSREEMTKNQVSLSCLVKGFYPSDIAVEWESNGQPENNYKTTVPVLDSDGSFRLASYLTVDKSRWQQGNVFSCSVMHEALHNHYTQKSLSLSPGK
notes: made in CHO cells; also called VHH7-mono-Fc; hpIgR_198
By EC50 is commonly meant the concentration that produces a half-maximal response. A higher EC50 goes with weaker potency. In general, Kd refers to a measure of binding affinity in units of concentration. Low values mean a tighter complex, high ones a looser complex. As to B1, the “Fold change in EC50” value in [1] was found to be 2.5 fold. Besides, the “For. Trans. (Fold Incr.)” value in assay [2] came to 1.9 fold. Further, the “Rev. Trans (Fold Incr.)” value in assay [2] worked out at 3.3 fold. Besides, the concentration for a half-maximal effect (EC50) in assay [3] amounted to 36.4 nM; in [4], 12.4 nM; in assay [12], 36.4 nM; in [13], 31.1 nM; in [14], 36.4 nM. The “Transcytosis (Fold Incr.)” value in [5] stood at 1.3 fold. In addition, the Kd in [6], in assay [10] and in assay [15] was 521 nM throughout. Moreover, the binding result in [7] was “no binding (tested: 100 ug/ml (single concentration))”; in assay [8], “no binding (tested: 100 ug/ml (single concentration))”; in [9], “no binding (tested: 100 ug/ml (single concentration))”; with hpIgR_D3, “no binding (tested: 100 ug/ml (single concentration))”; in [11], “binds”; with hpIgR_D2-D3, “no binding (tested: 100 ug/ml (single concentration))”.

B2: VHH11-linker-mono-Fc protein (Fc fusion)
chain: EVQVVESGGGLVQAGGSLRLSCAASGRTFTTYRMGWFRQAPGKEREFVAAIRWSGGRTLYADSVKGRFTISRDNAKNTAYLQMNNLRPEDTAVYYCAADLAEYSGTYSSPADSPAGYDYWGQGTQVTVSSEPKTPKPQPQPQLQPQPNPTTESKSPKSPAPELLGGPSVFLFPPKPKDTLMISRTPEVTCVVVDVSHEDPEVKFNWYVDGVEVHNAKTKPREEQYNSTYRVVSVLTVLHQDWLNGKEYKCKVSNKALPAPIEKTISKAKGQPREPQVYTKPPSREEMTKNQVSLSCLVKGFYPSDIAVEWESNGQPENNYKTTVPVLDSDGSFRLASYLTVDKSRWQQGNVFSCSVMHEALHNHYTQKSLSLSPGK
notes: made in CHO cells; also called VHH11-mono-Fc; hpIgR_250
For orientation: koff means the first-order rate constant of dissociation. The kon is a measure of how fast the partners come together. A high value points to faster complex formation. Take B2: the “Fold change in EC50” value in assay [1] amounted to 3.2 fold. Moreover, the “For. Trans. (Fold Incr.)” value in [2] worked out at 24.2 fold. The “Rev. Trans (Fold Incr.)” value in [2] turned out to be 10.3 fold. The EC50 in assay [3] turned out to be 1.5 nM; in [4] it was 0.3 nM; in assay [12], 1.5 nM; in [13], 0.8 nM; in assay [14], 1.5 nM. In assay [5], the “Transcytosis (Fold Incr.)” value turned out to be 32 fold. Besides, the Kd in [6] amounted to 19 nM; in assay [10], 19 nM; in assay [18], 15.2 nM; in [19] it was 27.9 nM; in assay [15] it was 19 nM. Further, the binding result (in [7]; in [9]; with hpIgR_D3; in assay [20]; in assay [21]; in the assay with hpIgR_D2-D3) was “no binding (tested: 100 ug/ml (single concentration))” in each case. The results for the dissociation rate constant (koff) in assay [16] and in [17] were 0.00281 s⁻¹ and 0.00314 s⁻¹, respectively. The values for the kon in assay [18] and in assay [19] were 184000 M⁻¹ s⁻¹ and 113000 M⁻¹ s⁻¹, respectively. Besides, the “increase in their apical concentration relative to control VHH (MDCK-hpIgR monolayers)” value in assay [22] was greater than 10 fold.
